Data published in the domain aggregation screens of Martell et al. (2025).

Assay: soluble fraction after stress (log2 fold change); higher = more stays soluble; pooled small domains, quantitative proteomics
Conditions: stress: 50 degC
In short: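 The measure of aggregation propensity here is the base-two logarithm of the fold change in the soluble amount of each protein after stress. A higher value means more of that protein stays in solution. Stress was applied at 50°C to pooled libraries of small protein domains, read out by high-throughput quantitative proteomics.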

Sequence | soluble fraction (log2)
HMFTNSTSSRQLTNSDDTLRLNISSQTRQMLPNGQPFGGSLSGKLLLVIYGATTRSIPAQTTPEKIVV | -0.134
HMFTSVDVAPDLRTAKVFYSVLGRKKSDKEINIAINQKRKAFKKFMGPELHLKNIPDLHFYYD | -0.232
HMFTYDLSERELTIIELVAKGLNNKELADTLFLSEGTIRNYLSTLLNKLDLRDRTQLAIFYYQHL | -2.62
HMFVEEGSLKKITFDTYEFNITDNLKSLRVTYQGLLPNLFREGQGVVIEGILLEQNYIQANTVF | 0.22
HMFVTGTTIKKLREEKRMTQGELAQMIGVSDKAVSKWETGRGLPDISLLEPLSRALGISVAELFAGQH | -0.0392
HMFWEGYLAARREQFLKDQQVLLGNEFRSNPDFWLEVASKEWAVVEERLSTGADVSEEVQETMGLDF | -2.16
HMFYNSSDNAYKILEINKSATVDEIKAAYRKMAKKYHPDKVIHLGQEHQKGAEEKFRQVQEAYEELQKERG | 0.0887
HMGAAVEVISLRYRSAAELLPIVRSLLSTEGKISADERTNSLIIVDSDEAVARVIHSLATLDT | -0.125
HMGADGIPGKNGENGETSYVHFAYATSADGKTGFSTTDTVGKTYMGQYADFEKADSEDPTKYRWGKFQGP | 0.102
HMGAFAIHTASELSAGMRIRHERFGPGVITGIDTANPASGARIQVDFDNGTSKTLLLSYAKFQI | -0.622
HMGAGKVVDGVTYDFVFDVDVADGQPPLRLPYNRGEDVYQAAERFILRNELPATYREQIVNFIVQNTPG | -0.131
HMGAISGEQREFYTVFRGHLNSHVGEFKVEDIENLLMKAKTEVPDLLEEEFLKMGEAILNRYRN | -0.0826
HMGAKEHLAGETLRMAVELLSEKQGIPAEQALIRFISSPVYDALYDLDTGMWTQGPTRLLEAFEALE | -1.7
HMGALARLLASVEQELGVTRDRMTRTQKQEAVTLLNEWGAFTLRKSVEDVAEALGVSRFTVYNYLERAEA | -2.74
HMGALSLDMLFDRFDALQEQSMGDKTEGGQELRGMIRTFIEQEKLDIRVTRTTTNAALLEMIEKEMQG | -0.451
HMGASALTEREREVLRLLEGGGSDKRIARQLAISEHGVRYHLKSIYKKLGVHDRVSAIAAGRRLAS | -0.21
HMGASTQLVEIKNAYENGEWQNVIDLAGKLHEKYNGSEEDKEAQEMAKNSQSKLDEAAAAKAAEEA | -0.033
HMGASYSQFLDQVDSGNVQKVAFGGDMRGGTSQLTYTTRGGQSSTITAPFDRDLINVLRTKNVEIVQEEP | 0.139
HMGATFITSSKDNAINIRQAAGTDSKVIETIKNGHILESSEKSGEWYKVTYYDSDIKKTFTGYIHNSQLK | 0.159
HMGAVQFAEQKIHIGSRWIGKKISEFSAESDAFVILIKRGSEVVIPRGPTDIVENDVLVIHVPD | -2.56
HMGAVVSPMPGVILDIKVKEGDSVSEGQTVIILEAMKMENEIVSEFTGTVSAIRVKKGDTVDTDAVLVEI | -0.393
HMGAYPENSLLKERGQSAVYLIQENRKRLFFNAEAFLINGYNWKDIQVVDDLSKILTGKVIYAK | -2.76
HMGDAATVFRDHYNINSAAQAQAALDRKEALWEQPNPWRDSDNREVFDWAAQTVKDRFDSGKYKPK | 0.129
HMGDDVRKNILDVLSKFERVDITDLDSLELVRFYLEIEDIFDIEIKENDFYRLKSVDSIVDYIRNKSFF | -1.2
HMGDIQFMEYRINHSSGWIGKNISDFAAVSKNLVILIKRGQDVVIPRGPTAIMEDDVLVLHA | -1.6

Sequence | soluble fraction (log2)
HMGDITALMPGKVIQIIVKEGQEIKVGDPLIVIESMKMENTISSEVNGTIKSINIQIDDNVQFDQVLFTV | -2.1
HMGDITIPDLQGMSFDQAREKLKALGLSIGKISYTSDTSKDDGVVISQGLQAGGKASKGATVDITINET | 0.0588
HMGDLEEAVKDFSEAIRLNDSWAEAYANRAVVYAEQGDAAQSDQDAEKARLLGVDQNRLNEMLNAVNS | 0.0258
HMGDLKALMPGKVTQVLVSGGQKVKVGEPVLLMESMKMEQTIVATKDGDISEILVSEGDTVEVGKIMIKI | 0.163
HMGDLTVPDLSGLTVDQAKQRLKDMGLVLGKITTQEDSSKPDGVIISQSPSADGKINKGQLVDVVVNKLS | 0.0463
HMGDTHKVPGVKGVNVEQAMDMLSRLDLKAVVIDSVYVKDKKLGTVIEQNPVEGSVVKPGRPIYLVVNSRS | 0.242
HMGDTISVPAVRTLAYNKAMDILNAEGLKGIVADSVYDNHTAPGTVIEQNPKAGTIVKEGREVFLTIHA | 0.103
HMGDWITGTVTRIADNGWGTFQPENAHNTVSIPPKMVADNQLKEADSIKIIAEPSPDGTKTFIKAISRE | -0.00712
HMGEDSEPVQVPDVTGQPLWEARRTLSSMGLKVLDDGGSGSVTAQMPSAGATLRNGGQMMLYTYDEALPE | 0.133
HMGEEIRTWTDAQGRKIEARMSMLDGDQVLLELKDGRKIPYPLAKLSADDAHYARHFASASASD | 0.0254
HMGEFVQLKNRTGSVIEAKILNYQNGKVKLQRKDGVIFVVPISIFDRMSSSIIENKAKEMDSF | 0.00542
HMGEIHAQIPGLVSHLFVKEGNTVQVEQKLFILEAMKMENEIDSPIQGTVKRIHIATGSKVEKGDLIMEIS | -0.505
HMGEKFTFGQIAKAKAYAKTYANDMTSAVKNIEAIATGLSKHPEVADTLKKANENQELNRITKLAG | 0.149
HMGEKPTEITLSNAISVQELAEKLYVSETDIIRTLFLDGIIVNINQVLDLETAVKVGDQLGVTITIVE | -1.2
HMGEKTVPNVIGQKLATAKQLLEKEGLTVGSTSYNKNQADKDTVLSTDPAPGSHLSEGAKVNLTLSSGA | 0.261
HMGEKVIAVSGGFDPIHVGHLRMMQDAAQHGRLVVIVNSDEWLLKKKGYVFMPWEERAELIGAYDFVDE | -0.977
HMGELDPKIIAQINTFLQGITKLIEHPGNKDAKKTALGALHKLTFDQNITANFGKQLGQLDQVIQSSEET | 0.112
HMGELGPGSRGQAVRALQERLMALGFPLARFGADGIFGRETTGALRAFQHVAGLSPTGLGDHETLKWLGII | -0.935
HMGELTNALATLSERERDVARLVAQGLDNRQIAAQLFLSEGTVRNRISDILDKLALTNRTQLAIAWLHAE | -0.588
HMGEPTLTIRVVSYNPQSGEMVVVARDPLSGRYALATLNVRTGAGQMIGPQGELLPIENFALGS | -0.985
HMGEQVAVPDVTKKSVREVNNILTSAGLRLQIEGSGISVRQDPPADTMVAPDTVVTVSFEPP | 0.168
HMGEQVFSRKDLAINGNDLKAVFGWPPGPKYREALDQLFHWVLEDPARNRRETLLAYLHSLYD | -0.0199
HMGESEKTLELVSQKDALVDEAFFFVRFQALLESNKTKGAQDLLDQSNHLSAAKLLQANAYLDIV | 0.119
HMGESFEELAREISDDTGSKTEGGETGLFPRGVMAPQFEEAAFLLKVGDISEPIRTKFGYHIIKLKEIKP | -0.156
HMGESVVVPDLRGKTLEEARAILKKVDLDYEINDSTYSKTAVPGTIRDIVPAPGSHVKAGRILFVSING | -0.145

Sequence | soluble fraction (log2)
HMGETISVPAVRSLAYDRAVDMLTAEGLKGIVADSVYDNRTQPGTVIEQNPKAGTIVKEGREVYLTINA | 0.157
HMGFAPEAAREEVAQLIGQRGRAVTVLRPSGQVEIAGRRFEATVEVGAVDAGDTIVVRGQTAFALLVEKAD | 0.0301
HMGFKLQRYTTFVVERLKKYQDTPAAQMHDLLKEHYPDFPAVSPKTVYNYVMKIRQEHGLPAV | -3.63
HMGFSERLAQAMSHAGYTQGGLAKAVGMAQSSVNKLLNNANSSRKTVEIASVLGVRPEWLSTGEGDML | 0.00207
HMGFSKGKRDLIRMIKLAIRELADDNGRAQIEDVITRLVQEGHSRDEIRLQIDMFLRQGEAMEPKQGIIKL | 0.325
HMGFSLEQFGTDPDLKKIVENAFERIITASEGRIFKSDFSSNNSALPLEIFSFLIAVILLKLSGMN | -0.142
HMGFVATRSRKFLPFSEARAITRGLGFSNQKDYKEWIKGNGNELLLPFNPWRTYGDSGWKGWKDFLGTDKA | -1.03
HMGFYDLFINLADKVGSLADVTQILAEARINLVNVHILEIREEIDGIAQLTFSSEKDRQKALELLKTKYK | -1.33
HMGGDFVEHLKDLASEAPVIRLVNTIIGRVIDLRASDIHLEPFDDGLHVRYRVDGVIHPGELVPPRLS | 0.0558
HMGGEGQIEIREREGIPAEAWVDGVMRGQTPLRVEHVSIGTRRVELRAEGRPPVAADVLVRPTVTALVELS | 0.271
HMGGEHPIPEDWAVNEANYEHGAKFYGYTRAHVDAEAQAFRDQYAANGKKYVDWDAHFRTFMRWQNERRYG | -0.111
HMGGEPVSARVPDTLHGARLDATAAALFPDFSRSRLAEWIKAGRLRRNDQPAKPRDKVAVDDHLLLIPEY | 0.0696
HMGGFSVTAEAFDGTPEVGKTVGFTAGSTKIKVEDTKGDATFGTILEKETVGFGEGKYTYFYIGL | -0.223
HMGGKAITGGEGEIIIRADKAETVAIYGIDGRLVHRVSTEAGDTKRVSVPAGIYIVKGAKVVV | ≥ 0.62
HMGGKTAVVTGSLVNVRKGPGTGNALVGQVARGDELPVLGQDGDWYQIKLANGSNGWVAGWLVSLKDAVP | 0.432
HMGGLIDQSIQEIIDKYSVPGKKIQKAQRLKIVAEMHTKGIFKMRGGVQQAAQALGVTRYTVYNDLEVMN | -2.89
HMGGLLSVIQKKAINNVKDRYSENAIKSMTKVQLHDLIKAETSRLLDPANAKETPEYQAFLEE | 0.0926
HMGGLSAEQKNGIQSVLKNFDPKNLTSADAKSITSEFKKLGVQPGKDLETTMAASGFDAKEVGRLAF | 0.0781
HMGGPRDVPYSTFLIEVEKGQVAEVTIQDHKITGTYKNSNEPFITNAPDDPDLVSRLIKYGVGVQAKPPE | -0.0153
HMGGREEAGTDIARLLGYINDIHGEELIAKLEYYQKMLGSENFAVLMSRLPDGQKKELREQNLYSEYV | -0.145
HMGGRRHANMSREEEAAFLAPFFEKAAQGGILVVREIRQALDAHLGRTVPLSTVYNLLHRHNWRKL | -2.71
HMGGRTITVGISENMTVKDIAQMLEEKGLIEDARLFVVQELLSAYHKEIKPGIYDLSTDMTAAQMLEIMS | -0.464
HMGGSIDITTAPPGAKIYLDADYYGKTPKRLENISAGTYRLHLLHPEKGEVYRSVTLNEKNGTLKIDENLN | 0.124
HMGGTATDYYNQGRTAYDVGDYNGALMNFQEAVRLDPRYGEAYYGLGKAYEALNMQNQALDAYLSAI | -0.16
HMGGVSTDKPLNWDADGTSKLTQEQIDYLRSTYDLSDMSKQDYYDLMADLTNMNAISIKDVISQYVK | -0.0536
